Experimental data published in PMC7712654.

Target: α-CT coiled-coil domain fused with HIS tag (α-CT-His), fluorescently labeled (Arabidopsis thaliana)
Test: MST
Details: domain or fragment

Chain of α-CT coiled-coil domain fused with HIS tag (α-CT-His), fluorescently labeled (Arabidopsis thaliana) (Q9LD43 420-769): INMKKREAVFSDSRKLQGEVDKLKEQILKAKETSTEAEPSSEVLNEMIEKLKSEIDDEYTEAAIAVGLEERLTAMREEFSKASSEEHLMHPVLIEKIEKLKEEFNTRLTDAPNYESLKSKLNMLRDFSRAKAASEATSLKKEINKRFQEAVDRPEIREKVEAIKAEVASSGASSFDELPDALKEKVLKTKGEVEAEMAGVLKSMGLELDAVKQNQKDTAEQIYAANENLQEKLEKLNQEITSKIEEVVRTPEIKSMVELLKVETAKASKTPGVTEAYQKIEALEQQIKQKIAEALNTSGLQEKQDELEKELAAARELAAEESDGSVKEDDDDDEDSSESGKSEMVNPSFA

Kd: 1400 nM
Substance: coiled-coil domain of CTI2, GST tag removed by thrombin
